Reference: the Human Domainome abundance scans (Beltran et al. 2025)
± gives the uncertainty stated by the source.

B1: Calcium-binding protein 2, residues 155 to 219; numbered along this chain, Q9NPB3 (parent)
chain: RELRDAFREFDTNGDGRISVGELRAALKALLGERLSQREVDEILQDVDLNGDGLVDFEEFVRMMS

Variants of: B1
Assay: abundance fitness (aPCA) (normalised: wild type 0, dead -1); higher = more abundant; growth selection in yeast, the domain comes from the species named
Settings: Homo sapiens

Q: Which abundance fitness does the source give for RELRDAFREFDTNGDGRISVGELRAALKALLGERLSQREVREILQDVDLNGDGLVDFEEFVRMMS [D41R] here?
A: -0.15 ± 0.062

Q: Which abundance fitness does the source give for RELRDAFREFDTNGDGRISVGELRAALKALLGERLSQREVMEILQDVDLNGDGLVDFEEFVRMMS [D41M] here?
A: -0.302 ± 0.12

Q: Which abundance fitness does the source give for RELRDAFREFDTNGDGRISVGELRAALKALLGERLSQREVVEILQDVDLNGDGLVDFEEFVRMMS [D41V] here?
A: -0.237 ± 0.076

Q: Which abundance fitness does the source give for RELRDAFREFDTNGDGRISVGELRAALKALLGERLSQREVQEILQDVDLNGDGLVDFEEFVRMMS [D41Q] here?
A: -0.365 ± 0.17

Q: With RELRDAFREFDTNGDGRISVGELRAALKALLGERLSQREVWEILQDVDLNGDGLVDFEEFVRMMS [D41W] as the variant, how does the abundance fitness read?
A: -0.158 ± 0.075

Q: For RELRDAFREFDTNGDGRISVGELRAALKALLGERLSQREVTEILQDVDLNGDGLVDFEEFVRMMS [D41T], which abundance fitness is on record?
A: -0.104 ± 0.056

Q: For RELRDAFREFDTNGDGRISVGELRAALKALLGERLSQREVHEILQDVDLNGDGLVDFEEFVRMMS [D41H], which abundance fitness is on record?
A: -0.437 ± 0.11

Q: For RELRDAFREFDTNGDGRISVGELRAALKALLGERLSQREVLEILQDVDLNGDGLVDFEEFVRMMS [D41L], which abundance fitness is on record?
A: -0.305 ± 0.092

Q: Which abundance fitness does the source give for RELRDAFREFDTNGDGRISVGELRAALKALLGERLSQREVEEILQDVDLNGDGLVDFEEFVRMMS [D41E] here?
A: -0.077 ± 0.083

Q: Which abundance fitness does the source give for RELRDAFREFDTNGDGRISVGELRAALKALLGERLSQREVKEILQDVDLNGDGLVDFEEFVRMMS [D41K] here?
A: -0.095 ± 0.062

Q: Which abundance fitness does the source give for RELRDAFREFDTNGDGRISVGELRAALKALLGERLSQREVNEILQDVDLNGDGLVDFEEFVRMMS [D41N] here?
A: -0.506 ± 0.48

Q: Which abundance fitness does the source give for RELRDAFREFDTNGDGRISVGELRAALKALLGERLSQREVYEILQDVDLNGDGLVDFEEFVRMMS [D41Y] here?
A: 0.03 ± 0.2

Q: With RELRDAFREFDTNGDGRISVGELRAALKALLGERLSQREVGEILQDVDLNGDGLVDFEEFVRMMS [D41G] as the variant, how does the abundance fitness read?
A: -0.162 ± 0.087

Q: For RELRDAFREFDTNGDGRISVGELRAALKALLGERLSQREVIEILQDVDLNGDGLVDFEEFVRMMS [D41I], which abundance fitness is on record?
A: -0.184 ± 0.15

Q: Which abundance fitness does the source give for RELRDAFREFDTNGDGRISVGELRAALKALLGERLSQREVCEILQDVDLNGDGLVDFEEFVRMMS [D41C] here?
A: -0.059 ± 0.14

Q: Which abundance fitness does the source give for RELRDAFREFDTNGDGRISVGELRAALKALLGERLSQREVPEILQDVDLNGDGLVDFEEFVRMMS [D41P] here?
A: -0.221 ± 0.14

Q: Which abundance fitness does the source give for RELRDAFREFDTNGDGRISVGELRAALKALLGERLSQREVAEILQDVDLNGDGLVDFEEFVRMMS [D41A] here?
A: -0.151 ± 0.071

Q: For RELRDAFREFDTNGDGRISVGELRAALKALLGERLSQREWDEILQDVDLNGDGLVDFEEFVRMMS [V40W], which abundance fitness is on record?
A: 0.041 ± 0.055

Q: For RELRDAFREFDTNGDGRISVGELRAALKALLGERLSQREYDEILQDVDLNGDGLVDFEEFVRMMS [V40Y], which abundance fitness is on record?
A: -0.117 ± 0.23

Q: With RELRDAFREFDTNGDGRISVGELRAALKALLGERLSQREVDEILQFVDLNGDGLVDFEEFVRMMS [D46F] as the variant, how does the abundance fitness read?
A: -0.321 ± 0.11

Q: Which abundance fitness does the source give for RELRDAFREFDTNGDGRISVGELRAALKALLGERLSQREVDEILQEVDLNGDGLVDFEEFVRMMS [D46E] here?
A: -0.155 ± 0.078

Q: For RELRDAFREFDTNGDGRISVGELRAALKALLGERLSQREVDEILVDVDLNGDGLVDFEEFVRMMS [Q45V], which abundance fitness is on record?
A: -0.108 ± 0.068

Q: With RELRDAFREFDTNGDGRISVGELRAALKALLGERLSQREVDEILFDVDLNGDGLVDFEEFVRMMS [Q45F] as the variant, how does the abundance fitness read?
A: -0.263 ± 0.097

Q: Which abundance fitness does the source give for RELRDAFREFDTNGDGRISVGELRAALKALLGERLSQREVDEILADVDLNGDGLVDFEEFVRMMS [Q45A] here?
A: -0.069 ± 0.061

Q: Which abundance fitness does the source give for RELRDAFREFDTNGDGRISVGELRAALKALLGERLSQREVDEILPDVDLNGDGLVDFEEFVRMMS [Q45P] here?
A: -0.133 ± 0.073

Q: Which abundance fitness does the source give for RELRDAFREFDTNGDGRISVGELRAALKALLGERLSQREVDEILRDVDLNGDGLVDFEEFVRMMS [Q45R] here?
A: 0.054 ± 0.072

Q: For RELRDAFREFDTNGDGRISVGELRAALKALLGERLSQREVDEILEDVDLNGDGLVDFEEFVRMMS [Q45E], which abundance fitness is on record?
A: -0.076 ± 0.092

Q: Which abundance fitness does the source give for RELRDAFREFDTNGDGRISVGELRAALKALLGERLSQREVDEILIDVDLNGDGLVDFEEFVRMMS [Q45I] here?
A: -0.01 ± 0.13

Q: Which abundance fitness does the source give for RELRDAFREFDTNGDGRISVGELRAALKALLGERLSQREVDEILGDVDLNGDGLVDFEEFVRMMS [Q45G] here?
A: -0.19 ± 0.12

Q: With RELRDAFREFDTNGDGRISVGELRAALKALLGERLSQREVDEILTDVDLNGDGLVDFEEFVRMMS [Q45T] as the variant, how does the abundance fitness read?
A: 0.003 ± 0.067

Q: Which abundance fitness does the source give for RELRDAFREFDTNGDGRISVGELRAALKALLGERLSQREVDEILWDVDLNGDGLVDFEEFVRMMS [Q45W] here?
A: -0.109 ± 0.076

Q: With RELRDAFREFDTNGDGRISVGELRAALKALLGERLSQREVDEILSDVDLNGDGLVDFEEFVRMMS [Q45S] as the variant, how does the abundance fitness read?
A: -0.147 ± 0.096

Q: Which abundance fitness does the source give for RELRDAFREFDTNGDGRISVGELRAALKALLGERLSQREVDEILLDVDLNGDGLVDFEEFVRMMS [Q45L] here?
A: 0.015 ± 0.064

Q: With RELRDAFREFDTNGDGRISVGELRAALKALLGERLSQREVDEILYDVDLNGDGLVDFEEFVRMMS [Q45Y] as the variant, how does the abundance fitness read?
A: -0.16 ± 0.12

Q: With RELRDAFREFDTNGDGRISVGELRAALKALLGERLSQREVDEILMDVDLNGDGLVDFEEFVRMMS [Q45M] as the variant, how does the abundance fitness read?
A: -0.141 ± 0.092

Q: For RELRDAFREFDTNGDGRISVGELRAALKALLGERLSQREVDEILHDVDLNGDGLVDFEEFVRMMS [Q45H], which abundance fitness is on record?
A: -0.013 ± 0.22

Q: Which abundance fitness does the source give for RELRDAFREFDTNGDGRISVGELRAALKALLGERLSQREVDEILKDVDLNGDGLVDFEEFVRMMS [Q45K] here?
A: -0.215 ± 0.19

Q: Which abundance fitness does the source give for RELRDAFREFDTNGDGRISVGELRAALKALLGERLSQREVDEILDDVDLNGDGLVDFEEFVRMMS [Q45D] here?
A: -0.144 ± 0.092

Q: Which abundance fitness does the source give for RELRDAFREFDTNGDGRISVGELRAALKALLGERLSQREVDESLQDVDLNGDGLVDFEEFVRMMS [I43S] here?
A: 0.08 ± 0.063

Q: For RELRDAFREFDTNGDGRISVGELRAALKALLGERLSQREVDEMLQDVDLNGDGLVDFEEFVRMMS [I43M], which abundance fitness is on record?
A: -0.017 ± 0.074

Q: Which abundance fitness does the source give for RELRDAFREFDTNGDGRISVGELRAALKALLGERLSQREVDEKLQDVDLNGDGLVDFEEFVRMMS [I43K] here?
A: 0.053 ± 0.067
